Reference: patent US20220332804A1 (CSL INNOVATION, published 2022)

Legend:
Assay in all cases: SPR, KD relative to WT C2;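 note: biacore SPR at 37 °C, anti-C2 mAbs captured on anti-human IgG chips with alanine or serine point mutants of C2 as analyte, KD from 1:1 fit compared with wild-type C2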
human C2 F437A = biological target: T1, human C2 F437A (human, UniProt P06681 21-752)
T1 sequence: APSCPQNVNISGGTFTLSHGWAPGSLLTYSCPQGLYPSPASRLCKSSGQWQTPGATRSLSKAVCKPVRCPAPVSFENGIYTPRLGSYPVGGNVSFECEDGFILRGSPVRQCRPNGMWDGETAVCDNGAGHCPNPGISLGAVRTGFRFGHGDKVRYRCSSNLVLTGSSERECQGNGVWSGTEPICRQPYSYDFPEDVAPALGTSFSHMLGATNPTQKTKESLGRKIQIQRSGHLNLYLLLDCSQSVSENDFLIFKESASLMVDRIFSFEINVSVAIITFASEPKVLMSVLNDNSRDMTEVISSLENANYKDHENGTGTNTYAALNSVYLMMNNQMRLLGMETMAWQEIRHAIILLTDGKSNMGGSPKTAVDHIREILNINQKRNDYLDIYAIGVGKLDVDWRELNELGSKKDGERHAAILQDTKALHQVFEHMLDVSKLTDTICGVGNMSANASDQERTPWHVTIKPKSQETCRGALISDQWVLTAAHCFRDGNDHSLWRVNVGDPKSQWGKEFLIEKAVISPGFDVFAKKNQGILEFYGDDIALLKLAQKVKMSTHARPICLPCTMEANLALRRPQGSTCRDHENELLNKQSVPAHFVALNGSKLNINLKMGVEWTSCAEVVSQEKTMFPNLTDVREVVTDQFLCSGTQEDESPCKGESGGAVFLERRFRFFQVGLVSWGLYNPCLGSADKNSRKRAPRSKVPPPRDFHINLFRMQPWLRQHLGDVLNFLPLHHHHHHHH

human C2 F689A = biological target: T2, human C2 F689A (human, UniProt P06681 21-752)
T2 sequence: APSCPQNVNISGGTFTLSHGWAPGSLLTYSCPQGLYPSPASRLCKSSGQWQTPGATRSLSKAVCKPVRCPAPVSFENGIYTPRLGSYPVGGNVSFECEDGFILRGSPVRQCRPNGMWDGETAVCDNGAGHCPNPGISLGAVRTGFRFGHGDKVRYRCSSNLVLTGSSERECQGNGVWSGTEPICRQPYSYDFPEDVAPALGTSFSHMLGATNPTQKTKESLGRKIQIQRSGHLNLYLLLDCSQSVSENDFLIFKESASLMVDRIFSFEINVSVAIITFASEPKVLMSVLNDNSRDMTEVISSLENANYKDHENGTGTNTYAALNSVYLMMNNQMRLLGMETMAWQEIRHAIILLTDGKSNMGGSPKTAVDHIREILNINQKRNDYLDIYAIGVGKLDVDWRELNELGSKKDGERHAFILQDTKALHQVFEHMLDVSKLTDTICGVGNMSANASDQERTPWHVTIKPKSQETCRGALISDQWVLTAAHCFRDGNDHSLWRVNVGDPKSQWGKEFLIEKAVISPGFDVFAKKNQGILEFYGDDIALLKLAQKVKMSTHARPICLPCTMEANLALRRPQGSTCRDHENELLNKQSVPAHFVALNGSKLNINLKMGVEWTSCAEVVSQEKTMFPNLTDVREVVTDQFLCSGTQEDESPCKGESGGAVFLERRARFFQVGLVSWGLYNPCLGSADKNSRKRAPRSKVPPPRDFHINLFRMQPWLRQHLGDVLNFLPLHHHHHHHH

human C2 K274A = biological target: T3, human C2 K274A (human, UniProt P06681 21-752)
T3 sequence: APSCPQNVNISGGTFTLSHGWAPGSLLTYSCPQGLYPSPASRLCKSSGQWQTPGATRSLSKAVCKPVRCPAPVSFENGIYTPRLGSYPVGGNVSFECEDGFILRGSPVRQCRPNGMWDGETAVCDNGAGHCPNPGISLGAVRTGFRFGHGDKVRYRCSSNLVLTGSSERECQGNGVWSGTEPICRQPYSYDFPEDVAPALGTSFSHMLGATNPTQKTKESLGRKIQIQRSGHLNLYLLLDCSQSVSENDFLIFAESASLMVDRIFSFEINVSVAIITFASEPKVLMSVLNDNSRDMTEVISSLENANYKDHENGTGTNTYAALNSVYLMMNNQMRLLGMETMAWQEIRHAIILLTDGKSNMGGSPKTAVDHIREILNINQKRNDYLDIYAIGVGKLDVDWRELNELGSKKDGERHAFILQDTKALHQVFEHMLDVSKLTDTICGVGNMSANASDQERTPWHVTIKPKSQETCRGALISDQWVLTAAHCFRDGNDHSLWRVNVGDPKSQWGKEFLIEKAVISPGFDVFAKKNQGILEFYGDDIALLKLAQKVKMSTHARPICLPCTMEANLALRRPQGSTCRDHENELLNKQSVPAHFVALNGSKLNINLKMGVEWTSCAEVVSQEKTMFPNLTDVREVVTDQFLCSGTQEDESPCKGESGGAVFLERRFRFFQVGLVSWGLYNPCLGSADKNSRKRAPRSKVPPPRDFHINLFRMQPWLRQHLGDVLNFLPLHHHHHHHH

human C2 E476A = biological target: T4, human C2 E476A (human, UniProt P06681 21-752)
T4 sequence: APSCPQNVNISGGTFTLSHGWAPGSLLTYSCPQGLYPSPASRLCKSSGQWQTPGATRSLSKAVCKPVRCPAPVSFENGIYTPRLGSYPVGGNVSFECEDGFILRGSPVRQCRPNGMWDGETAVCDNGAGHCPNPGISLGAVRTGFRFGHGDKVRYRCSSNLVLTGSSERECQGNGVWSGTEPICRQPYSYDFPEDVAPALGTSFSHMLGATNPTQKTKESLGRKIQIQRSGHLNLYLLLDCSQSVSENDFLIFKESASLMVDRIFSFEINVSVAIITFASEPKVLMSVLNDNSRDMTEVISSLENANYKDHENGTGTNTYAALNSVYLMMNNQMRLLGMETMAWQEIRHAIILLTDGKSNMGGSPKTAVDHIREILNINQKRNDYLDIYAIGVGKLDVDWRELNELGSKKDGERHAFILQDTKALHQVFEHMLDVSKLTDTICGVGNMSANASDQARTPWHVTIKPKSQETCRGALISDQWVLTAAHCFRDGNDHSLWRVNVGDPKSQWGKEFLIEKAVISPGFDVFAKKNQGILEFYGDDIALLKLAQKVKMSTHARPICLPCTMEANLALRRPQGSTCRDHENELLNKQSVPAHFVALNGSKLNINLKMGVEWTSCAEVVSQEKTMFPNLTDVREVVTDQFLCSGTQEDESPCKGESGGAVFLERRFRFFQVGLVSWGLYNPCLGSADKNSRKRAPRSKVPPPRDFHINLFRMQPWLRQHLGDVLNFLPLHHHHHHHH

B1: RF16-242 (antibody, human IgG4 S228P, lambda, V domains shown)
VH: EVQLLQSGAEVKKPGESLKISCKGSGYSFTSYWIGWVRQMPGKGLEWMGIIYPGDSDTRYSPSFQGQVTISADKSISTAYLQWSSLKASDTAMYYCARRGHYGDYFDYWGQGTLVTVSS
VL: SYELTQPPSVSVSPGQTARITCSGDALPKKYAYWYHQKSGQAPVLVIYEDRRRPSEIPERFSGSSSGTMATLTITGAQVEDEGVYFCYSRDRAGNQRVFGGGTQLTVLG
notes: pH-dependent anti-C2 antibody from a phage display library
With B1 the Fold diff (human C2 F437A) was 15 fold, the Fold diff (human C2 F689A) was 1 fold and the Fold diff (human C2 K274A) was 12 fold. For the same binder, the Fold diff (human C2 E476A) was 2 fold.
